Assay results taken from patent EP4810056A2.

Molecular target: PD-1 (programmed death 1) on peripheral CD4 T cells of treated subjects (human) (UniProt Q15116)
Test: flow cytometry of free PD-1 on CD4 T cells of subjects after IV MEDI5752 (receptor occupancy, in vivo dosing >225 mg)

Chain of UniProt Q15116 (Q15116 25-288): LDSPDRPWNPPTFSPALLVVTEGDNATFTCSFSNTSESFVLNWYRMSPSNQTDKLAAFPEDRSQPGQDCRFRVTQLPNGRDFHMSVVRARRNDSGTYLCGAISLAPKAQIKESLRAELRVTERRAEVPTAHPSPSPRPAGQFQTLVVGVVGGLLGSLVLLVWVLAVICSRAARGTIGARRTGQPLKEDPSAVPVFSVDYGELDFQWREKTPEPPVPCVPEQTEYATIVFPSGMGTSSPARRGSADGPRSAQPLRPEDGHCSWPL

Q: MEDI5752 (bispecific antibody) was tested. Which peripheral PD-1 receptor occupancy did it give?
A: Its peripheral PD-1 receptor occupancy is greater than 90%.
